{"source": "patent US20200397865A1", "about": "(ACCELERON PHARMA, published 2020)", "binders": {"B1": {"name": "GDF11 (ligand, UniProt O95390 299-407, looked up)", "chain": "NLGLDCDEHSSESRCCRYPLTVDFEAFGWDWIIAPKRYKANYCSGQCEYMFMQKYPHTHLVQQANPRGSAGPCCTPTKMSPINMLYFNDKQQIIYGKIPGMVVDRCGCS", "notes": "also called BMP11"}, "B2": {"name": "BMP9 (ligand, UniProt Q9UK05 320-429, looked up)", "chain": "SAGAGSHCQKTSLRVNFEDIGWDSWIIAPKEYEAYECKGGCFFPLADDVTPTKHAIVQTLVHLKFPTKVGKACCVPTKLSPISVLYKDDMGVPTLKYHYEGMSVAECGCR", "notes": "also called GDF2"}, "B3": {"name": "activin B (ligand, UniProt P09529 293-407, looked up)", "chain": "GLECDGRTNLCCRQQFFIDFRLIGWNDWIIAPTGYYGNYCEGSCPAYLAGVPGSASSFHTAVVNQYRMRGLNPGTVNSCCIPTKLSTMSMLYFDDEYNIVKRDVPNMIVEECGCA"}, "B4": {"name": "BMP10 (ligand, UniProt O95393 317-424, looked up)", "chain": "NAKGNYCKRTPLYIDFKEIGWDSWIIAPPGYEAYECRGVCNYPLAEHLTPTKHAIIQALVHLKNSQKASKACCVPTKLEPISILYLDKGVVTYKFKYEGMAVSECGCR"}, "B5": {"name": "activin A (ligand, UniProt P08476 311-426, looked up)", "chain": "GLECDGKVNICCKKQFFVSFKDIGWNDWIIAPSGYHANYCEGECPSHIAGTSGSSLSFHSTVINHYRMRGHSPFANLKSCCVPTKLRPMSMLYYDDGQNIIKKDIQNMIVEECGCS", "notes": "also called ActA"}, "B6": {"name": "GDF3 (ligand, UniProt Q9NR23 251-364, looked up)", "chain": "AAIPVPKLSCKNLCHRHQLFINFRDLGWHKWIIAPKGFMANYCHGECPFSLTISLNSSNYAFMQALMHAVDPEIPQAVCIPTKLSPISMLYQDNNDNVILRHYEDMVVDECGCG"}, "B7": {"name": "ActRIIB-Fc homodimer (Fc fusion, UniProt Q13705 20-134, looked up)", "chain": "GRGEAETRECIYYNANWELERTNQSGLERCEGEQDKRLHCYASWRNSSGTIELVKKGCWLDDFNCYDRQECVATEENPQVYFCCCEGNFCNERFTHLPEAGGPEVTYEPPPTAPT", "notes": "also called ActRIIB-Fc:ActRIIB-Fc homodimer; ActRIIB homodimer; not shown: linker and Fc"}, "B8": {"name": "BMP6 (ligand, UniProt P22004 382-513, looked up)", "chain": "QQSRNRSTQSQDVARVSSASDYNSSELKTACRKHELYVSFQDLGWQDWIIAPKGYAANYCDGECSFPLNAHMNATNHAIVQTLVHLMNPEYVPKPCCAPTKLNAISVLYFDDNSNVILKKYRNMVVRACGCH"}}, "experiment_in_all_cases": "SPR (Biacore), Fc protein captured by anti-Fc antibody, ligand injected", "key": {"[1]": {"molecular_target": "B7", "experimental": "(§1) A Biacore™-based binding assay was used to compare ligand binding selectivity of the ALK4-Fc:ActRIIB-Fc heterodimeric complex described above with that of ActRIIB-Fc and ALK4-Fc homodimer complexes. The ALK4-Fc:ActRIIB-Fc heterodimer, ActRIIB-Fc homodimer, and ALK4-Fc homodimer were independently captured onto the system using an anti-Fc antibody. Ligands were injected and allowed to flow over the captured receptor protein. Results are summarized in the table below, in which ligand off-rates (kd) most indicative of effective ligand traps are denoted in bold font."}, "[2]": {"molecular_target": "T1, ALK4-Fc:ActRIIB-Fc heterodimer (human, UniProt P36896 24-126; Q13705 20-134)", "T1 construct": "also called ALK4-Fc:ActRIIB-Fc heterodimeric complex; ALK4:ActRIIB heterodimer; not shown: linker and engineered Fc", "T1 sequence 1": "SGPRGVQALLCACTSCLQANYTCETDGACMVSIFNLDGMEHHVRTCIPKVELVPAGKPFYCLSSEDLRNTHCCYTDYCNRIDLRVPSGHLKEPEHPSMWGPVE", "T1 sequence 2": "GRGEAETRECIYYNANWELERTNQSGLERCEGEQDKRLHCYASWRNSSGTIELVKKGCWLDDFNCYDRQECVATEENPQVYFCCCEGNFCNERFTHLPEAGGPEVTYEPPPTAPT", "experimental": "as §1"}, "[3]": {"molecular_target": "B3", "experimental": "as §1"}, "[4]": {"molecular_target": "B5", "experimental": "as §1"}, "[5]": {"molecular_target": "B8", "experimental": "as §1"}}}
{"binder": "B1", "values": [{"measurement": "Kd", "setting": "[1]", "value": 2, "unit": "pM"}, {"measurement": "koff", "setting": "[1]", "value": 0.00011, "unit": "s⁻¹"}, {"measurement": "kon", "setting": "[1]", "value": "5e+07", "unit": "M⁻¹ s⁻¹"}, {"measurement": "Kd", "setting": "[2]", "value": 3, "unit": "pM"}, {"measurement": "koff", "setting": "[2]", "value": 0.00011, "unit": "s⁻¹"}, {"measurement": "kon", "setting": "[2]", "value": "3.8e+07", "unit": "M⁻¹ s⁻¹"}]}
{"binder": "B2", "values": [{"measurement": "Kd", "setting": "[1]", "value": 77, "unit": "pM"}, {"measurement": "koff", "setting": "[1]", "value": 0.0011, "unit": "s⁻¹"}, {"measurement": "kon", "setting": "[1]", "value": "1.4e+07", "unit": "M⁻¹ s⁻¹"}, {"measurement": "Kd", "setting": "[2]", "value": 3400, "unit": "pM"}]}
{"binder": "B3", "values": [{"measurement": "Kd", "setting": "[2]", "value": 6, "unit": "pM"}, {"measurement": "koff", "setting": "[2]", "value": "4e-05", "unit": "s⁻¹"}, {"measurement": "kon", "setting": "[2]", "value": "7.1e+06", "unit": "M⁻¹ s⁻¹"}]}
{"binder": "B4", "values": [{"measurement": "Kd", "setting": "[1]", "value": 11, "unit": "pM"}, {"measurement": "koff", "setting": "[1]", "value": 0.00026, "unit": "s⁻¹"}, {"measurement": "kon", "setting": "[1]", "value": "2.3e+07", "unit": "M⁻¹ s⁻¹"}, {"measurement": "Kd", "setting": "[2]", "value": 74, "unit": "pM"}, {"measurement": "koff", "setting": "[2]", "value": 0.0041, "unit": "s⁻¹"}, {"measurement": "kon", "setting": "[2]", "value": "5.6e+07", "unit": "M⁻¹ s⁻¹"}]}
{"binder": "B5", "values": [{"measurement": "Kd", "setting": "[2]", "value": 12, "unit": "pM"}, {"measurement": "koff", "setting": "[2]", "value": 0.00015, "unit": "s⁻¹"}, {"measurement": "kon", "setting": "[2]", "value": "1.3e+07", "unit": "M⁻¹ s⁻¹"}]}
{"binder": "B6", "values": [{"measurement": "Kd", "setting": "[1]", "value": 1500, "unit": "pM"}, {"measurement": "koff", "setting": "[1]", "value": 0.0022, "unit": "s⁻¹"}, {"measurement": "kon", "setting": "[1]", "value": "1.4e+06", "unit": "M⁻¹ s⁻¹"}, {"measurement": "Kd", "setting": "[2]", "value": 4900, "unit": "pM"}, {"measurement": "koff", "setting": "[2]", "value": 0.017, "unit": "s⁻¹"}, {"measurement": "kon", "setting": "[2]", "value": "3.4e+06", "unit": "M⁻¹ s⁻¹"}]}
{"binder": "B7", "values": [{"measurement": "Kd", "setting": "[3]", "value": 20, "unit": "pM"}, {"measurement": "koff", "setting": "[3]", "value": 0.0001, "unit": "s⁻¹"}, {"measurement": "kon", "setting": "[3]", "value": "5.1e+06", "unit": "M⁻¹ s⁻¹"}, {"measurement": "Kd", "setting": "[4]", "value": 19, "unit": "pM"}, {"measurement": "koff", "setting": "[4]", "value": 0.00023, "unit": "s⁻¹"}, {"measurement": "kon", "setting": "[4]", "value": "1.2e+07", "unit": "M⁻¹ s⁻¹"}, {"measurement": "Kd", "setting": "[5]", "value": 190, "unit": "pM"}, {"measurement": "koff", "setting": "[5]", "value": 0.0068, "unit": "s⁻¹"}, {"measurement": "kon", "setting": "[5]", "value": "3.2e+07", "unit": "M⁻¹ s⁻¹"}]}
{"binder": "B8", "values": [{"measurement": "Kd", "setting": "[2]", "value": 2700, "unit": "pM"}, {"measurement": "koff", "setting": "[2]", "value": 0.0055, "unit": "s⁻¹"}, {"measurement": "kon", "setting": "[2]", "value": "2e+06", "unit": "M⁻¹ s⁻¹"}]}
